{"source": "paper PMC6737250", "about": "“A new perspective on membrane-embedded Bax oligomers using DEER and bioresistant orthogonal spin labels” (Scientific Reports, 2019)", "molecules": {"B1": {"name": "Bax_(C87(C62S, C126S)) labeled with maleimide Gd-DOTA (natural protein, human, UniProt Q07812 1-192, looked up)", "chain": "MDGSGEQPRGGGPTSSEQIMKTGALLLQGFIQDRAGRMGGEAPELALDPVPQDASTKKLSESLKRIGDELDSNMELQRMIAAVDTDCPREVFFRVAADMFSDGNFNWGRVVALFYFASKLVLKALSTKVPELIRTIMGWTLDFLRERLLGWIQDQGGWDGLLSYFGTPTWQTVTIFVAGVLTASLTIWKKMG", "modifications": "maleimide Gd-DOTA spin label on cysteine 87", "notes": "Bax, human, full length, single surface-exposed cysteine at position 87; also called Bax_(C87Gd); source: E. coli, purified in the same way as the wild type protein; labeled with maleimide Gd-DOTA"}}, "key": {"[1]": {"target": "Bax_(C87(C62S, C126S)) labeled with maleimide gem-diethyl nitroxide (MAG) (human) (UniProt Q07812)", "test": "DEER (double electron-electron resonance, EPR); inactive Bax in buffer (aqueous solution) with 50% v/v glycerol-d8, flash frozen; Q-band 4-pulse DEER, NO-NO at 50 K, Gd-Gd at 10 K; one labeled variant per sample"}, "[2]": {"target": "Bax_(C87(C62S, C126S)) labeled with maleimide Gd-DOTA (human) (UniProt Q07812)", "test": "DEER (double electron-electron resonance, EPR); inactive Bax in buffer (aqueous solution) with 50% v/v glycerol-d8, flash frozen; Q-band 4-pulse DEER, NO-NO at 50 K, Gd-Gd at 10 K; one labeled variant per sample"}, "[3]": {"target": "T1, Bax wild type labeled with iodacetamide gem-diethyl nitroxide (IAG) (human, UniProt Q07812 1-192, IAG (iodacetamide gem-diethyl nitroxide) spin label on the native cysteines 62 and 126)", "T1 construct": "Bax, human, full length; two native cysteines at positions 62 and 126; also called Bax_(WTIAG); source: E. coli (BL21/RIPL/pTYB1-Bax), purified; labeled with IAG", "test": "DEER (double electron-electron resonance, EPR); two Bax variants mixed before oligomerization (3-fold excess of unlabeled BaxWT or of Bax_(C87Gd) over nitroxide-labeled BaxWT), activated with cBid and MOM-like liposomes, pellet fraction; NO-NO (50 K), NO-Gd (10 K) and Gd-Gd (10 K) DEER channels on the same sample", "conditions": "both partners purified"}, "[4]": {"target": "T2, Bax wild type labeled with MTSL at cysteines 62 and 126 (human, UniProt Q07812 1-192, MTSL nitroxide spin label (R1) on the native cysteines 62 and 126)", "T2 construct": "Bax, human, full length; two native cysteines at positions 62 and 126; also called Bax_(WTR1); source: E. coli (BL21/RIPL/pTYB1-Bax), purified; labeled with MTSL", "test": "DEER (double electron-electron resonance, EPR); two Bax variants mixed before oligomerization (3-fold excess of unlabeled BaxWT or of Bax_(C87Gd) over nitroxide-labeled BaxWT), activated with cBid and MOM-like liposomes, pellet fraction; NO-NO (50 K), NO-Gd (10 K) and Gd-Gd (10 K) DEER channels on the same sample", "conditions": "both partners purified"}}}
{"molecule": "Bax_(C87(C62S, C126S)) labeled with maleimide gem-diethyl nitroxide (MAG) (from UniProt Q07812 1-192) (natural protein)", "values": [{"measurement": "fraction of dimeric protein in solution", "setting": "[1]", "value": "< 10", "unit": "%"}]}
{"molecule": "B1", "values": [{"measurement": "fraction of dimeric protein in solution", "setting": "[2]", "value": "< 10", "unit": "%"}, {"measurement": "binding result", "setting": "[3]", "value": "binds"}, {"measurement": "binding result", "setting": "[4]", "value": "binds"}]}
